Results as given in patent US20240002501A1.

Legend:
[1] = biological target: L1-CAM on L1-CAM(+) human tumor cells (human) (UniProt P32004); test: flow cytometry, JMN mesothelioma cells (control)
[2] = biological target: L1-CAM on L1-CAM(+) human tumor cells (human) (UniProt P32004); test: flow cytometry, MSTO mesothelioma cells (control)
[3] = biological target: L1-CAM on L1-CAM(+) human tumor cells (human) (UniProt P32004); test: flow cytometry, VAMT mesothelioma cells (control)
[4] = biological target: L1-CAM on L1-CAM(+) human tumor cells (human) (UniProt P32004); test: flow cytometry, MESO 9 mesothelioma cells (control)
[5] = biological target: L1-CAM on L1-CAM(+) human tumor cells (human) (UniProt P32004); test: flow cytometry, MESO 10 mesothelioma cells (control)
[6] = biological target: L1-CAM on L1-CAM(+) human tumor cells (human) (UniProt P32004); test: flow cytometry, MESO 11 mesothelioma cells (control)
[7] = biological target: L1-CAM on L1-CAM(+) human tumor cells (human) (UniProt P32004); test: flow cytometry, MESO 34 mesothelioma cells (control)
[8] = biological target: L1-CAM on L1-CAM(+) human tumor cells (human) (UniProt P32004); test: flow cytometry, MESO 47 mesothelioma cells (control)
[9] = biological target: L1-CAM on L1-CAM(+) human tumor cells (human) (UniProt P32004); test: flow cytometry, MSTO-21H mesothelioma cells (control)
[10] = biological target: L1-CAM on L1-CAM(+) human tumor cells (human) (UniProt P32004); test: flow cytometry, NCI-H2052 mesothelioma cells (control)
[11] = biological target: L1-CAM on L1-CAM(+) human tumor cells (human) (UniProt P32004); test: flow cytometry, 5838 EWS cells (control)
[12] = biological target: L1-CAM on L1-CAM(+) human tumor cells (human) (UniProt P32004); test: flow cytometry, 8402 ALL cells (control)
[13] = biological target: L1-CAM on L1-CAM(+) human tumor cells (human) (UniProt P32004); test: flow cytometry, TC32 EWS cells (control)
[14] = biological target: L1-CAM on L1-CAM(+) human tumor cells (human) (UniProt P32004); test: flow cytometry, TC71 EWS cells (control)
[15] = biological target: L1-CAM on L1-CAM(+) human tumor cells (human) (UniProt P32004); test: flow cytometry, LAN-1 NB cells (control)
[16] = biological target: L1-CAM on L1-CAM(+) human tumor cells (human) (UniProt P32004); test: flow cytometry, SKNCM NB cells (control)
[17] = biological target: L1-CAM on L1-CAM(+) human tumor cells (human) (UniProt P32004); test: flow cytometry, A4573 EWS cells (control)
[18] = biological target: L1-CAM on L1-CAM(+) human tumor cells (human) (UniProt P32004); test: flow cytometry, HPB-T ALL cells (control)
[19] = biological target: L1-CAM on L1-CAM(+) human tumor cells (human) (UniProt P32004); test: flow cytometry, SKEAW EWS cells (control)
[20] = biological target: L1-CAM on L1-CAM(+) human tumor cells (human) (UniProt P32004); test: flow cytometry, SKEFM EWS cells (control)
[21] = biological target: L1-CAM on L1-CAM(+) human tumor cells (human) (UniProt P32004); test: flow cytometry, SKELP EWS cells (control)
[22] = biological target: L1-CAM on L1-CAM(+) human tumor cells (human) (UniProt P32004); test: flow cytometry, SKEPR EWS cells (control)
[23] = biological target: L1-CAM on L1-CAM(+) human tumor cells (human) (UniProt P32004); test: flow cytometry, SKERT EWS cells (control)
[24] = biological target: L1-CAM on L1-CAM(+) human tumor cells (human) (UniProt P32004); test: flow cytometry, SKNMC EWS cells (control)
[25] = biological target: L1-CAM on L1-CAM(+) human tumor cells (human) (UniProt P32004); test: flow cytometry, SW480 CRC cells (control)
[26] = biological target: L1-CAM on L1-CAM(+) human tumor cells (human) (UniProt P32004); test: flow cytometry, THP-1 AML cells (control)
[27] = biological target: L1-CAM on L1-CAM(+) human tumor cells (human) (UniProt P32004); test: flow cytometry, SKES-1 EWS cells (control)
[28] = biological target: L1-CAM on L1-CAM(+) human tumor cells (human) (UniProt P32004); test: flow cytometry, CHP-100 EWS cells (control)
[29] = biological target: L1-CAM on L1-CAM(+) human tumor cells (human) (UniProt P32004); test: flow cytometry, IMR32 LUC NB cells (control)
[30] = biological target: L1-CAM on L1-CAM(+) human tumor cells (human) (UniProt P32004); test: flow cytometry, M14 melanoma cells (control)
[31] = biological target: L1-CAM on L1-CAM(+) human tumor cells (human) (UniProt P32004); test: flow cytometry, NCI-H69 SCLC cells (control)
[32] = biological target: L1-CAM on L1-CAM(+) human tumor cells (human) (UniProt P32004); test: flow cytometry, NCI-H82 SCLC cells (control)
[33] = biological target: L1-CAM on L1-CAM(+) human tumor cells (human) (UniProt P32004); test: flow cytometry, SKNMM LUC NB cells (control)
[34] = biological target: L1-CAM on L1-CAM(+) human tumor cells (human) (UniProt P32004); test: flow cytometry, NCI-H345 SCLC cells (control)
[35] = biological target: L1-CAM on L1-CAM(+) human tumor cells (human) (UniProt P32004); test: flow cytometry, NCI-H524 SCLC cells (control)
[36] = biological target: L1-CAM on L1-CAM(+) human tumor cells (human) (UniProt P32004); test: flow cytometry, MCF7 breast CA cells (control)
[37] = biological target: L1-CAM on L1-CAM(+) human tumor cells (human) (UniProt P32004); test: flow cytometry, HTB67 melanoma cells (control)
[38] = biological target: L1-CAM on L1-CAM(+) human tumor cells (human) (UniProt P32004); test: flow cytometry, AU565 breast CA cells (control)
[39] = biological target: L1-CAM on L1-CAM(+) human tumor cells (human) (UniProt P32004); test: flow cytometry, HTB24 breast CA cells (control)
[40] = biological target: L1-CAM on L1-CAM(+) human tumor cells (human) (UniProt P32004); test: flow cytometry, HTB25 breast CA cells (control)
[41] = biological target: L1-CAM on L1-CAM(+) human tumor cells (human) (UniProt P32004); test: flow cytometry, SKMEL28 melanoma cells (control)
[42] = biological target: L1-CAM on L1-CAM(+) human tumor cells (human) (UniProt P32004); test: flow cytometry, UM SCC 22B HNSCC cells (control)
[43] = biological target: L1-CAM on L1-CAM(+) human tumor cells (human) (UniProt P32004); test: flow cytometry, ACC 104 M-07e AML cells (control)
[44] = biological target: L1-CAM on L1-CAM(+) human tumor cells (human) (UniProt P32004); test: flow cytometry, HCC1954 breast CA cells (control)
[45] = biological target: L1-CAM on L1-CAM(+) human tumor cells (human) (UniProt P32004); test: flow cytometry, U2OS osteosarcoma cells (control)
[46] = biological target: L1-CAM on L1-CAM(+) human tumor cells (human) (UniProt P32004); test: flow cytometry, RG143B osteosarcoma cells (control)
[47] = biological target: L1-CAM on L1-CAM(+) human tumor cells (human) (UniProt P32004); test: flow cytometry, CRL1427 osteosarcoma cells (control)
[48] = biological target: L1-CAM on L1-CAM(+) human tumor cells (human) (UniProt P32004); test: flow cytometry, RH28 rhabdomyosarcoma cells (control)
[49] = biological target: L1-CAM on L1-CAM(+) human tumor cells (human) (UniProt P32004); test: flow cytometry, RH30 rhabdomyosarcoma cells (control)
[50] = biological target: L1-CAM on L1-CAM(+) human tumor cells (human) (UniProt P32004); test: flow cytometry, RH36 rhabdomyosarcoma cells (control)
[51] = biological target: L1-CAM on L1-CAM(+) human tumor cells (human) (UniProt P32004); test: flow cytometry, RH41 rhabdomyosarcoma cells (control)
[52] = biological target: L1-CAM on L1-CAM(+) human tumor cells (human) (UniProt P32004); test: flow cytometry, RH48 rhabdomyosarcoma cells (control)
[53] = biological target: L1-CAM on L1-CAM(+) human tumor cells (human) (UniProt P32004); test: flow cytometry, HTB82 rhabdomyosarcoma cells (control)
[54] = biological target: L1-CAM on L1-CAM(+) human tumor cells (human) (UniProt P32004); test: flow cytometry, HTB-41 A253 submaxillary salivary gland cells (control)

Measured: MFI

Sequence of L1-CAM on L1-CAM(+) human tumor cells (human) (P32004 20-1257 limits assumed): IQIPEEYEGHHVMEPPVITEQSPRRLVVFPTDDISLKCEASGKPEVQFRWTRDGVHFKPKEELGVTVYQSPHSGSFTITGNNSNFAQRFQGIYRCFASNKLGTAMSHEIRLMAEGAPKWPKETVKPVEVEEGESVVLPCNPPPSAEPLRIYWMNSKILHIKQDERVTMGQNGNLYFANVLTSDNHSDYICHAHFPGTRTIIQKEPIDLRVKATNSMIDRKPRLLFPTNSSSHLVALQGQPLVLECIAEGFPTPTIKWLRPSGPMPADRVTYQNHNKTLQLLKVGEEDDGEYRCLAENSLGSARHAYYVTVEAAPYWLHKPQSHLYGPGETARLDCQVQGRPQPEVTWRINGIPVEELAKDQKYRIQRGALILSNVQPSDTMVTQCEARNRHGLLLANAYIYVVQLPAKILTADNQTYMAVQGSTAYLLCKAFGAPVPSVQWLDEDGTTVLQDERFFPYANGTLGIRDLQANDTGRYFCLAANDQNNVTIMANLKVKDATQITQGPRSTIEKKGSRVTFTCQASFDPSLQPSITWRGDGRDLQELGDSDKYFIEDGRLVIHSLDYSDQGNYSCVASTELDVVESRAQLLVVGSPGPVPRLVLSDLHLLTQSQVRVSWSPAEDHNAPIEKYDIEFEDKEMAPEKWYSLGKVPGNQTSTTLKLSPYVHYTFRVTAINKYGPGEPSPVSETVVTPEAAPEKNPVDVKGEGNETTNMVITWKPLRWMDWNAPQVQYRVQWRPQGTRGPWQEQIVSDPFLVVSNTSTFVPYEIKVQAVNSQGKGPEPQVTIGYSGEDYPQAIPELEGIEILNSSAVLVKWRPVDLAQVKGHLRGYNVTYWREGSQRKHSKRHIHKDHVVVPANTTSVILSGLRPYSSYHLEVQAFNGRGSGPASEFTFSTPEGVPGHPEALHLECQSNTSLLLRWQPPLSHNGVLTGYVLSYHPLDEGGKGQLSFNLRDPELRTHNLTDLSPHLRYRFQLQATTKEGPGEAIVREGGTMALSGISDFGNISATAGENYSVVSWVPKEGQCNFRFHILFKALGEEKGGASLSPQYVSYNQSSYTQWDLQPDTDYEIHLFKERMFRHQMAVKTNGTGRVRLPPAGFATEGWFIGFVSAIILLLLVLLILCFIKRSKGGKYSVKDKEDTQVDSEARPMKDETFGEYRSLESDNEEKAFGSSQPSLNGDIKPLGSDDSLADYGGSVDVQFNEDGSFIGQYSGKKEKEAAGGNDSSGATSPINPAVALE

MOPC 21 (antibody)
5: [1] | [2] | [3] | [4] | [5] | [6] | [7] | [8] | [9] | [10]

Rituxan (antibody)
6: [15] | [39]
3: [22] | [34] | [35]
4: [12] | [29] | [31] | [33]
not listed: [1] | [2] | [3] | [4] | [5] | [6] | [7] | [8] | [9] | [10]
5: all other assays above
